Measured values reported in the DeepSol protein solubility set.

Assay: soluble on expression in E. coli; label from the status in PepcDB or PDB records

MAHHHHHHMAQRVHYRRHNHYNTKSNKVRPVRTPGGKLTIHVVKKKAGKPKCADCKTAIQGVKALRPADNYRARRKNRTVARAYGGSICARCIRERIMRAFLFEEQKCVRQVLKEKKKQEKKVKKVKKEKKKVNAKEVKKTATDNKKAKKVADKKKGK
soluble on expression in E. coli: not soluble

MSSNRQAYYKNNAKEQIGKEKRNEEVVSIRKDKREEAISKRRNINTQIEDDSETSTTPPGPFDANLLRLTVAAAQSSDPAEQLTAVQQARKMLSTDRNPPIDDLIGSGILPVLVQCLSSTDPNLQFEAAWALTNIASGTSEQTQAVVNAGAVPLFLQLLSCGNLNVCEQSVWALGNIIGDGPHFRDYCLELGILQPLLQFINPEIPIGFLRNVTWVIVNLCRCKDPAPSPAVVRTILPALSLLIHHQDTNILIDTVWALSYLTDGGNEHIQMVIEAQVVTHLVPLLGHVDVKVQTAALRAVGNIVTGTDEQTQLVLDSGVLRFMPGLLAHYKEKINKEAVWFVSNITAGNQQQVQDVFDAGIMPMIIHLLDRGDFPTQKEAAWAISNVTISGRPNQVEQMVKLGVLRPFCAMLSCTDSQIIQVVLDGINNILKMAGEAAEQVTSEIEECGGLDKIENLQNHENEDIYKLAFEIIDNFFSSDDETGNVEGAQSSAFGGDVPPVPDAPNGGWNFGK
soluble on expression in E. coli: not soluble

MGSDKIHHHHHHMRNLNEKMKDIFERSVEDIKERNQNLLRPEHILLQILYDENEATKVLKDLNVNVEEVITELEDYIDSQYGIYYGFSDQVYVSKELSYILELARKEARLFKQKDIGPLHFLLGLLRDGSTHAARVLKKYGVDYEKVLQTVKEHEEEYAAEQSPLTAFATDLTKLAKEGKVGPIIGRDREIERVIEILMRKTKNNPILIGDPGVGKTAIVEGLAQRIVEGKVPDPLKDVRILMVDLGRMIAGTKYRGEFEERLKSFLDEVMKQKEKTILFIDEIHTLVGAGAAEGAMDAANMLKPALARGEIRVIGATHWMSTENT
soluble on expression in E. coli: not soluble

MSQLFVRTGITFDSSQQALAHIGKEMLAKGVVHDSYPQALVEREASFPTGIALERHAVAIPHCEAVHAKSPAIYLIRPDKPVMFQQADDDEEIAVSLIIALIVENPAAQLKLLRRLFSELQNPSTLDALLSAPDAELAIRFQETILEPEQCVQV
soluble on expression in E. coli: not soluble

MGSDKIHHHHHHMRKLKIGITCYPSVGGSGIIATELGKQLAEKGHEIHFITSSIPFRLNTYHPNIHFHEVEVNQYAVFKYPPYDLTLASKIAEVAERENLDIIHAHYALPHAVCAYLAKQMLKRNIGIVTTLHGTDITVLGYDPSLKDLIRFAIESSDRVTAVSSALAAETYDLIKPEKKIETIYNFIDERVYLKKNTAAIKEKHGILPDEKVVIHVSNFRKVKRVQDVIRVFRNIAGKTKAKLLLVGDGPEKSTACELIRKYGLEDQVLMLGNQDRVEDLYSISDLKLLLSEKESFGLVLLEAMACGVPCIGTNIGGIPEVIKNNVSGFLVDVGDVTAATARAMSILEDEQLSNRFTKAAIEMLENEFSSKKIVSQYEQIYADLAEPE
soluble on expression in E. coli: not soluble
